From patent publication US20180030116A1 (Amgen, published 2018)
Positions count from the first letter of the chain named. Names and notes keep the numbering of the source. Like-named read-outs stand apart in the source and are kept apart here.

T1: MMP2 (human, UniProt P08253 30-660)
T1 sequence (looked up): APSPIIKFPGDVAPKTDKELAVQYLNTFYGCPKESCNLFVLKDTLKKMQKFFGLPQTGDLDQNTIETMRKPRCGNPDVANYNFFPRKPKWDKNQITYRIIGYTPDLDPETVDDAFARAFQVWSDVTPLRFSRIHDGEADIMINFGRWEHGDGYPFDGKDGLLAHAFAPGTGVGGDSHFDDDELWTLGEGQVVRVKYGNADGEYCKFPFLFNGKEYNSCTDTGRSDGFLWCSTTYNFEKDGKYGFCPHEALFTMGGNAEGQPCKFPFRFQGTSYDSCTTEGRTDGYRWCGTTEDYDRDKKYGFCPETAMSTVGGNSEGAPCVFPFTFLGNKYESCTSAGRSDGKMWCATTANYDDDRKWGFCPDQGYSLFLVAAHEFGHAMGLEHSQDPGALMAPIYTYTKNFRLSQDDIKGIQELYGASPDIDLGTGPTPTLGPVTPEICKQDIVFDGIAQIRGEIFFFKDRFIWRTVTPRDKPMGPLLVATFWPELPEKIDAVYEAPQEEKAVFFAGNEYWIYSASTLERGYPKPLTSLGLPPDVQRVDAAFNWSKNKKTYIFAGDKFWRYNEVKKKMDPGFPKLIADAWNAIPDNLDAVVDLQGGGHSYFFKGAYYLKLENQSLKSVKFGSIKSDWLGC

B1: TIMP-3 [K45N, V47T, P56N, G58T, K94N, E96T, R138T] (SEQ ID NO:4) (protein)
chain: CTCSPSHPQDAFCNSDIVIRANVTGKKLVKEGNFTTLVYTIKQMKMYRGFTKMPHVQYIHTEASESLCGLNLTVNKYQYLLTGRVYDGKMYTGLCNFVERWDQLTLSQRKGLNYTYHLGCNCKIKSCYYLPCFVTSKNECLWTDMLSNFGYPGYQSKHYACIRQKGGYCSWYRGWAPPDKSIINATDP
modifications: 4 engineered N-linked glycosylation sites (# EG, Table 2)
B2: TIMP-3 [K45N, V47T, F57N, K94N, E96T, R138T] (SEQ ID NO:7) (protein)
chain: B1 chain with N33P, F34N, T35G
modifications: 4 engineered N-linked glycosylation sites (# EG, Table 2)
B3: TIMP-3 [P56N, G58T, H78N, Q80T, K94N, E96T, R138T] (SEQ ID NO:20) (protein)
chain: B1 chain with N22K, T24V, H55N, Q57T
modifications: 4 engineered N-linked glycosylation sites (# EG, Table 2)
B4: TIMP-3 [H78N, Q80T, K94N, E96T, D110N, K112T, R138T] (SEQ ID NO:26) (other)
chain: B1 chain with N22K, T24V, N33P, T35G, H55N, Q57T, D87N, K89T
modifications: 4 engineered N-linked glycosylation sites (# EG, Table 2)
B5: TIMP-3 [K50N, V52T, K94N, E96T, D110N, K112T, R138T, G173T] (SEQ ID NO:17) (protein)
chain: B1 chain with N22K, T24V, K27N, V29T, N33P, T35G, D87N, K89T, G150T
modifications: 5 engineered N-linked glycosylation sites (# EG, Table 2)
B6: TIMP-3 [K45S, F57N, K94N, E96T, D110N, K112T, R138T] (SEQ ID NO:12) (protein)
chain: B1 chain with N22S, T24V, N33P, F34N, T35G, D87N, K89T
modifications: 4 engineered N-linked glycosylation sites (# EG, Table 2)
B7: TIMP-3 [K50N, V52T, K94N, E96T, D110N, K112T, R138T] (SEQ ID NO:16) (protein)
chain: B1 chain with N22K, T24V, K27N, V29T, N33P, T35G, D87N, K89T
modifications: 4 engineered N-linked glycosylation sites (# EG, Table 2)
B8: TIMP-3 [K50N, V52T P56N, G58T, K94N, E96T, D110N, K112T, R138T] (SEQ ID NO:14) (protein)
chain: B1 chain with N22K, T24V, K27N, V29T, D87N, K89T
modifications: 5 engineered N-linked glycosylation sites (# EG, Table 2)
B9: TIMP-3 [K45N, V47T, K94N, E96T, D110N, K112T, G173T] (SEQ ID NO:10) (protein)
chain: B1 chain with N33P, T35G, D87N, K89T, T115R, G150T
modifications: 4 engineered N-linked glycosylation sites (# EG, Table 2)
B10: TIMP-3 [K45N, V47T, F57N, K94N, E96T, D110N, K112T] (SEQ ID NO:6) (protein)
chain: B1 chain with N33P, F34N, T35G, D87N, K89T, T115R
modifications: 4 engineered N-linked glycosylation sites (# EG, Table 2)
B11: TIMP-3 [P56N, G58T K94N, E96T, Q126N, R138T] (SEQ ID NO:21) (protein)
chain: B1 chain with N22K, T24V, Q103N
modifications: 4 engineered N-linked glycosylation sites (# EG, Table 2)
B12: TIMP-3 [H78N, Q80T, K94N, E96T, D110N, K112T, R138T] (SEQ ID NO:26) fused to Fc (Fc fusion, not shown: a dimerising Fc or GST)
chain: B1 chain with N22K, T24V, N33P, T35G, H55N, Q57T, D87N, K89T
B13: TIMP-3 [P56N, G58T, K94N, E96T, D110N, K112T, R138T] (SEQ ID NO:22) (protein)
chain: B1 chain with N22K, T24V, D87N, K89T
modifications: 4 engineered N-linked glycosylation sites (# EG, Table 2)
B14: N-TIMP3 fused to Fc (Fc fusion, part only; not given: Fc carrier, unspecified, part only)
chain, part: CTCSPSHPQDAFCNSDIVIRAKVVGKKLVKEGPFGTLVYTIKQMKMYRGFTKMPHVQYIHTEASESLCGLKLEVNKYQYLLTGRVYDGKMYTGLCNFVERWDQLTLSQRKGLNYRYHLGCN
B15: N-TIMP3 (N-terminal TIMP-3 domain, AA 1-144) (other)
chain: B14 chain, part

Columns and labels:
Assay in all cases: cell-based or functional assay
MMP2 [1] = target: T1, MMP2
MMP9 [2] = target: T2, MMP9 (human, UniProt P14780 107-457, limits assumed)
MMP2 (human) = MMP2 (human) (UniProt P08253)
MMP9 (human) = MMP9 (human) (UniProt P14780)
MMP2 [3] = target: T1, MMP2; remark: listed apart in the source
MMP9 [4] = target: T2, MMP9; remark: listed apart in the source
MMP2 [5] = target: T1, MMP2; remark: listed apart in the source
[6] = target: TNF alpha converting enzyme (TACE) (UniProt P78536 215-671, limits assumed)
MMP9 [7] = target: T2, MMP9; remark: listed apart in the source
MMP2 [8] = target: T1, MMP2; remark: listed apart in the source
MMP9 [9] = target: T2, MMP9; remark: listed apart in the source
[10] = target: TNF alpha converting enzyme (TACE) (UniProt P78536)
TNF alpha converting enzyme (TACE) (UniProt P78536), sequence (P78536 215-671 limits assumed): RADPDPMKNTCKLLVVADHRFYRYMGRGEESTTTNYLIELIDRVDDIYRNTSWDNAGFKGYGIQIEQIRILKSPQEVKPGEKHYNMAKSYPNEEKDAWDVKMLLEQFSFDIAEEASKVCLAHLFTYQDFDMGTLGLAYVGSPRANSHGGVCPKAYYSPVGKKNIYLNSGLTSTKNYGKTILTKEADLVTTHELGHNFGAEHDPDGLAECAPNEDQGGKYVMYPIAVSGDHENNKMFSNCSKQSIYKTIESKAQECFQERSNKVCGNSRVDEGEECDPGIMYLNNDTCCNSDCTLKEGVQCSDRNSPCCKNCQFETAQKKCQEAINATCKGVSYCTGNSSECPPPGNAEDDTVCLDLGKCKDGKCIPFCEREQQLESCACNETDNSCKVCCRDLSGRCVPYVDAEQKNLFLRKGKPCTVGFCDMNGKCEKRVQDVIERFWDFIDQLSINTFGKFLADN

T2 sequence (P14780 107-457 limits assumed): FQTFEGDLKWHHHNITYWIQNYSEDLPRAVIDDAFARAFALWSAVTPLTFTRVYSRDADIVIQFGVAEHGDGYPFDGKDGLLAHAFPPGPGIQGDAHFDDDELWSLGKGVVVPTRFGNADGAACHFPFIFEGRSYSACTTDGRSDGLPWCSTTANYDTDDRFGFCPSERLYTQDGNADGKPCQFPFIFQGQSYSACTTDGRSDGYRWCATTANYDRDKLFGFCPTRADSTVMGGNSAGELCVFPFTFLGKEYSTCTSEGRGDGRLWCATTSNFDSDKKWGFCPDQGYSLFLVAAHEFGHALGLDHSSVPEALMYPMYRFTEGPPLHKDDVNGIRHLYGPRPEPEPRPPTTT
MMP9 (human), sequence (P14780 107-457 limits assumed): as above
TNF alpha converting enzyme (TACE) (UniProt P78536 215-671, limits assumed), sequence (P78536 215-671 limits assumed): as the sequence (P78536 215-671 limits assumed) above

Molecule	shift in MMP2 inhibitory activity (fold decrease) as compared to wild-type (fold decrease vs wild-type) (MMP2 [3])	shift in MMP9 inhibitory activity (fold decrease) as compared to wild-type (fold decrease vs wild-type) (MMP9 [4])	further results
TIMP-3 [H78N, Q80T, K94N, E96T, D110N, K112T, R138T] (SEQ ID NO:26) fused to IgG (from UniProt P35625 24-211)	–	–	MMP2 EC50 (inhibition of MMP activity, FRET peptide substrate) (MMP2 [1]): 14 nM; MMP9 EC50 (inhibition of MMP activity, FRET peptide substrate) (MMP9 [2]): 26 nM
N-TIMP3 fused to HSA (from UniProt P02768 25-609)	–	–	MMP2 EC50 (inhibition of MMP activity, FRET peptide substrate) (MMP2 (human)): 38.7 nM; MMP9 EC50 (inhibition of MMP activity, FRET peptide substrate) (MMP9 (human)): 36.5 nM
TIMP-3 [H78N, Q80T, K94N, E96T, D110N, K112T, R138T] (SEQ ID NO:26) fused to HSA (from UniProt P02768 25-609)	–	–	MMP2 EC50 (inhibition of MMP activity, FRET peptide substrate) (MMP2 (human)): 1.4 nM; MMP9 EC50 (inhibition of MMP activity, FRET peptide substrate) (MMP9 (human)): 5.1 nM
B1	1	9	–
B2	2	38	–
B3	2	15	–
B4	–	–	shift in MMP2 inhibitory activity (fold decrease) as compared to wild-type (MMP2 [5]): 2 fold decrease vs wild-type; shift in TACE inhibitory activity (fold decrease) as compared to wild-type [6]: 0.4 fold decrease vs wild-type; shift in MMP9 inhibitory activity (fold decrease) as compared to wild-type (MMP9 [7]): 6 fold decrease vs wild-type; MMP2 EC50 (inhibition of MMP activity, FRET peptide substrate) (MMP2 [8]): 1 nM; MMP9 EC50 (inhibition of MMP activity, FRET peptide substrate) (MMP9 [9]): 2.5 nM
B5	5	21	shift in TACE inhibitory activity (fold decrease) as compared to wild-type (fold decrease vs wild-type) [10]: 2
B6	3	74	–
B7	3	10	shift in TACE inhibitory activity (fold decrease) as compared to wild-type (fold decrease vs wild-type) [10]: 0.6
B8	2	19	–
B9	2	9	shift in TACE inhibitory activity (fold decrease) as compared to wild-type (fold decrease vs wild-type) [10]: 2
B10	2	59	–
B11	2	22	–
B12	–	–	MMP2 EC50 (inhibition of MMP activity, FRET peptide substrate) (MMP2 [3]): 13.3 nM; MMP9 EC50 (inhibition of MMP activity, FRET peptide substrate) (MMP9 [4]): 32.9 nM
B13	2	20	–
B14	–	–	MMP2 EC50 (inhibition of MMP activity, FRET peptide substrate) (MMP2 [3]): 6.9 nM; MMP9 EC50 (inhibition of MMP activity, FRET peptide substrate) (MMP9 [4]): 1.6 nM
B15	–	–	MMP2 EC50 (inhibition of MMP activity, FRET peptide substrate) (MMP2 [8]): 7.6 nM; MMP9 EC50 (inhibition of MMP activity, FRET peptide substrate) (MMP9 [9]): 1.7 nM
